Results published in paper doi:10.1101/2022.08.09.502851, “Dystroglycan N-terminal domain enables LARGE1 to extend matriglycan on α-dystroglycan and prevents muscular dystrophy” (bioRxiv, 2022).
Numbering of substitutions follows the chain as printed. Names may count otherwise.

B1: α-dystroglycan (α-DG), wild type, with full-length matriglycan, from control (WT littermate or C57BL/6J) mouse skeletal muscle (receptor, mouse (endogenous in skeletal muscle), UniProt Q62165 28-651, looked up)
chain: HWPSEPSEAVRDWKNQLEASMHSVLSDFQEAVPTVVGIPDGTAVVGRSFRVSIPTDLIASSGEIIKVSAAGKEALPSWLHWDPHSHILEGLPLDTDKGVHYISVSAARLGANGSHVPQTSSVFSIEVYPEDHNEPQSVRAASSDPGEVVPSACAADEPVTVLTVILDADLTKMTPKQRIDLLNRMQSFSEVELHNMKLVPVVNNRLFDMSAFMAGPGNAKKVVENGALLSWKLGCSLNQNSVPDIRGVETPAREGAMSAQLGYPVVGWHIANKKPTLPKRLRRQIHATPTPVTAIGPPTTAIQEPPSRIVPTPTSPAIAPPTETMAPPVRDPVPGKPTVTIRTRGAIIQTPTLGPIQPTRVSEAGTTVPGQIRPTLTIPGYVEPTAVITPPTTTTKKPRVSTPKPATPSTDSSTTTTRRPTKKPRTPRPVPRVTTKAPITRLETASPPTRIRTTTSGVPRGGEPNQRPELKNHIDRVDAWVGTYFEVKIPSDTFYDNEDTTTDKLKLTLKLREQQLVGEKSWVQFNSNSQLMYGLPDSSHVGKHEYFMHATDKGGLSAVDAFEIHVHKRPQGDKAPARFKARLAGDPAPVVNDIHKKIALVKKLAFAFGDRNCSSITLQNITRG
modifications: matriglycan [-GlcA-β1,3-Xyl-α1,3-]n, full length (α-DG of ~150-250 kDa); extensive O-glycosylation
notes: α-dystroglycan, the α-subunit cut from the DG pre-proprotein (Dag1), mouse; also called α-DG (WT)
B2: α-dystroglycan with the knock-in mutation T190M, from Dag1 T190M mouse skeletal muscle (receptor, UniProt Q62165 28-651, looked up)
chain: B1 chain with T163M
modifications: matriglycan shorter than wild type (α-DG laminin-binding band at ~100-150 kDa)
notes: α-dystroglycan, the α-subunit cut from the DG pre-proprotein (Dag1), mouse, knock-in T190M (Hara et al., 2011); also called α-DGN mutant (T190M)

Molecular target: T1, laminin-111 (mouse Engelbreth-Holm-Swarm (EHS) laminin) (mouse, UniProt P19137 25-3083; P02469 22-1786; P02468 34-1607)
T1 construct: laminin subunit alpha-1 of laminin-111, mouse EHS laminin; laminin subunit beta-1 of laminin-111, mouse EHS laminin; laminin subunit gamma-1 of laminin-111, mouse EHS laminin; source: bought: ThermoFisher, 23017015 (mouse Engelbreth-Holm-Swarm laminin); copies: + +
Assay: ELISA; solid-phase assay: WGA eluates of skeletal muscle diluted 1:50 in TBS coated on polystyrene microplates overnight at 4 °C; Laminin-111 in laminin-binding buffer; bound laminin detected with L9393 and HRP anti-rabbit IgG, absorbance at 490 nm; three replicates for each group
Details: one partner purified

| Binder | Kd [nM] |
| --- | --- |
| B1 | 0.966 ± 0.069 |
| B2 | 1.9 ± 0.199 |
